The target of test [1] is CD47 on Jurkat T cells (human (endogenous in Jurkat)) (UniProt Q08722).
Test [2] has as its target wild-type CD47 re-expressed in CD47-deficient JinB8 T cells (UniProt Q08722).

As for “recombinant thrombospondin-1 (TSP-1) (from UniProt P07996 19-1170) (natural protein)”, the reduction of CD69 mRNA expression (real-time PCR) in Jurkat T cells activated by anti-CD3 antibody for 2 hours, TSP-1 10 µg/ml; no inhibition in CD47-deficient JinB8 T cells in test [1] came to 45%. In addition, in test [2], the inhibition of CD69 induction (mRNA, real-time PCR) in anti-CD3-activated JinB8 cells transfected with wild-type CD47 was 35.1%.
With “Blastomyces adhesin-1 (BAD-1), native protein purified from B. dermatitidis yeast (natural protein)”, in test [1], the reduction of CD69 mRNA expression (real-time PCR) in Jurkat T cells activated by anti-CD3 antibody for 2 hours, BAD-1 10 µg/ml; no block in CD47-deficient JinB8 T cells amounted to 65%. The substance also showed an inhibition of CD69 induction (mRNA, real-time PCR) in anti-CD3-activated JinB8 cells transfected with wild-type CD47 in test [2] of 34.9%.
